From the Immune Epitope Database (IEDB) come the findings set out here.

For experiment [1], the target named is HLA-A*02:01. Description: IEDB peptide-MHC binding, purified MHC/competitive/fluorescence; filed as Kd, often an IC50 or EC50 that approximates it; ≥ and ≤ were set here for values at or beyond the usual limits of such assays.
Experiment [2] has as its target HLA-A*02:16. Described as above.
The target of experiment [3] is HLA-A*03:01. Put plainly: IEDB peptide-MHC binding, purified MHC/direct/fluorescence; filed as Kd, often an IC50 or EC50 that approximates it; ≥ and ≤ were set here for values at or beyond the usual limits of such assays.
Experiment [4] concerns the target HLA-A*11:01. The description is as above.
Experiment [5] addresses HLA-A*31:01. Description: IEDB peptide-MHC binding, purified MHC/competitive/fluorescence; filed as Kd, often an IC50 or EC50 that approximates it; ≥ and ≤ were set here for values at or beyond the usual limits of such assays.
Experiment [6] addresses HLA-A*03:01. The experiment is described as above.
Experiment [7] addresses HLA-A*02:01. Put plainly: IEDB peptide-MHC binding, purified MHC/direct/fluorescence; filed as Kd, often an IC50 or EC50 that approximates it; ≥ and ≤ were set here for values at or beyond the usual limits of such assays.
Experiment [8] addresses HLA-A*02:12. The experiment is described as above. The conditions noted are these: source organism: Brucella suis 1330.
Experiment [9] deals with HLA-A*02:16. The description is as above. The conditions noted are these: source organism: Brucella suis 1330.
In experiment [10] the target is HLA-A*02:19. Described as above. Particulars: source organism: Brucella suis 1330.
Experiment [11] addresses HLA-A*26:01. The experiment is described as above. Particulars: source organism: Brucella suis 1330.
Experiment [12] addresses HLA-B*15:01. The experiment is described as above. Particulars: source organism: Brucella suis 1330.
For another experiment, the target named is HLA-B*18:01. The experiment is described as above. The conditions noted are these: source organism: Brucella suis 1330.
Experiment [13] addresses HLA-B*46:01. The description is as above.
Experiment [14] deals with HLA-B*51:01. The description is as above. The conditions noted are these: source organism: Brucella suis 1330.
Experiment [15] addresses HLA-B*57:01. Described as above. The conditions noted are these: source organism: Brucella suis 1330.
In another experiment the target is HLA-C*03:03. Described as above.
In the next experiment the target is HLA-A*02:11. Description: IEDB peptide-MHC binding, purified MHC/competitive/fluorescence; filed as Kd, often an IC50 or EC50 that approximates it; ≥ and ≤ were set here for values at or beyond the usual limits of such assays. Particulars: source organism: Entamoeba histolytica HM-1:IMSS.
Experiment [16] deals with HLA-A*02:12. The description is as above. The conditions noted are these: source organism: Entamoeba histolytica HM-1:IMSS.
The target of experiment [17] is HLA-A*02:19. The description is as above. The conditions noted are these: source organism: Entamoeba histolytica HM-1:IMSS.
Experiment [18] has as its target HLA-A*26:01. The description is as above. The conditions noted are these: source organism: Entamoeba histolytica HM-1:IMSS.
The target of another experiment is HLA-A*68:02. The description is as above. The conditions noted are these: source organism: Entamoeba histolytica HM-1:IMSS.
Experiment [19] addresses HLA-A*69:01. The description is as above.
Experiment [20] has as its target HLA-B*15:01. The description is as above.
In the next experiment the target is HLA-B*27:03. The description is as above. The conditions noted are these: source organism: Entamoeba histolytica HM-1:IMSS.
In the next experiment the target is HLA-B*39:01. Described as above. Particulars: source organism: Entamoeba histolytica HM-1:IMSS.
In experiment [21] the target is HLA-B*46:01. Described as above. The conditions noted are these: source organism: Entamoeba histolytica HM-1:IMSS.
Experiment [22] deals with HLA-B*51:01. The experiment is described as above. The conditions noted are these: source organism: Entamoeba histolytica HM-1:IMSS.
Experiment [23] concerns the target HLA-B*57:01. The description is as above.
Experiment [24] deals with HLA-A*69:01. Put plainly: IEDB peptide-MHC binding, purified MHC/direct/fluorescence; filed as Kd, often an IC50 or EC50 that approximates it; ≥ and ≤ were set here for values at or beyond the usual limits of such assays. The conditions noted are these: source organism: Marburg virus - Musoke, Kenya, 1980.
The target in another experiment is HLA-A*23:01. Description: IEDB peptide-MHC binding, purified MHC/competitive/fluorescence; filed as Kd, often an IC50 or EC50 that approximates it; ≥ and ≤ were set here for values at or beyond the usual limits of such assays.
For another experiment, the target named is HLA-A*01:01. Description: IEDB peptide-MHC binding, purified MHC/direct/fluorescence; filed as Kd, often an IC50 or EC50 that approximates it; ≥ and ≤ were set here for values at or beyond the usual limits of such assays. Particulars: source organism: Camelpox virus M-96.
Experiment [25] has as its target HLA-A*31:01. The description is as above. Particulars: source organism: Camelpox virus M-96.
The target of another experiment is HLA-B*08:02. Described as above. Particulars: source organism: Variola virus.
For the next experiment, the target named is HLA-B*15:17. The description is as above. The conditions noted are these: source organism: Camelpox virus M-96.
The next experiment concerns the target HLA-B*27:05. The description is as above. Particulars: source organism: Camelpox virus M-96.
A further experiment addresses HLA-B*40:01. The description is as above. Particulars: source organism: Camelpox virus M-96.
Another experiment deals with HLA-B*48:01. The description is as above. Particulars: source organism: Camelpox virus M-96.
The target of the next experiment is HLA-B*58:01. The experiment is described as above. The conditions noted are these: source organism: Camelpox virus M-96.
In experiment [26] the target is HLA-A*11:01. Description: IEDB peptide-MHC binding, purified MHC/competitive/fluorescence; filed as Kd, often an IC50 or EC50 that approximates it; ≥ and ≤ were set here for values at or beyond the usual limits of such assays. The conditions noted are these: source organism: Vaccinia virus Copenhagen.
Setting [27] is: source organism: Coxiella burnetii RSA 493.
Where [28] appears, read: source organism: Mycobacterium tuberculosis.
Where [29] appears, read: source organism: Mycobacterium tuberculosis variant bovis BCG str. Pasteur 1173P2.
The mark [30] stands for this setting: source organism: Escherichia coli 536.
The mark [31] stands for this setting: source organism: Brucella suis 1330.
The mark [32] stands for this setting: source organism: Entamoeba histolytica HM-1:IMSS.
Setting [33] is: source organism: Influenza A virus (A/Goose/Hong Kong/385.3/2000(H5N1)).
Where [34] appears, read: source organism: Giardia lamblia ATCC 50803.
Setting [35] is: source organism: Camelpox virus M-96.
The mark [36] stands for this setting: source organism: Vaccinia virus Copenhagen.

With FLFLYWPHY, the equilibrium dissociation constant (Kd) (usually the equilibrium constant for the complex coming apart) in the experiment with HLA-A*02:01 [1] (setting [27]) came out at 628 nM; with HLA-A*02:16 [2] (setting [27]) it was 1740 nM.

As for RLNFFTPTK, the dissociation constant Kd with HLA-A*03:01 [3] (setting [28]) came out at 5.9 nM; with HLA-A*11:01 [4] (setting [28]) it was 3.1 nM; in the experiment with HLA-A*31:01 [5] (setting [29]), 2.3 nM.

As for GMSSRAIAR, the Kd is 15 nM with HLA-A*03:01 [6] (setting [30]) and 8.5 nM in the experiment with HLA-A*31:01 [5] (setting [30]).

In the case of MRIGSMATL, the Kd with HLA-A*02:01 [7] (setting [31]), with HLA-A*02:12 [8], with HLA-A*02:16 [9], in the experiment with HLA-A*02:19 [10], with HLA-A*03:01 [3] (setting [31]) and in the experiment with HLA-A*26:01 [11] was at least 20000 nM in each case. The Kd in the experiment with HLA-B*15:01 [12], in the experiment with HLA-B*18:01, with HLA-B*46:01 [13] (setting [31]), with HLA-B*51:01 [14] and with HLA-B*57:01 [15] was at least 20000 nM throughout.

On to DAMENPLSL, for which the Kd with HLA-C*03:03 (source organism: Leishmania donovani) was found to be 625 nM.

As to DVNGIRKPK, the Kd in the experiment with HLA-A*03:01 [3] (source organism: Amur virus), with HLA-A*11:01 [4] (source organism: Amur virus) and with HLA-A*31:01 [5] (source organism: Orthohantavirus dobravaense) was at least 20000 nM in each case.

For WAKLLKQKW, the dissociation constant Kd in the experiment with HLA-A*02:01 [1] (setting [32]), with HLA-A*02:11, in the experiment with HLA-A*02:12 [16], with HLA-A*02:16 [2] (setting [32]), with HLA-A*02:19 [17] and with HLA-A*03:01 [6] (setting [32]) was at least 20000 nM throughout. For the same sequence, the dissociation constant Kd in the experiment with HLA-A*26:01 [18], with HLA-A*68:02, with HLA-A*69:01 [19] (setting [32]), with HLA-B*15:01 [20] (setting [32]), with HLA-B*27:03 and with HLA-B*39:01 was at least 20000 nM in each case. Moreover, the figures for the dissociation constant (Kd) with HLA-B*46:01 [21], with HLA-B*51:01 [22] and with HLA-B*57:01 [23] (setting [32]) were at least 20000 nM, at least 20000 nM and 227 nM, respectively.

Turning to WLDSVIQYL, the dissociation constant Kd in the experiment with HLA-A*02:01 [7] (source organism: Marburg virus - Musoke, Kenya, 1980) was 143 nM; with HLA-A*69:01 [24], 963 nM; with HLA-C*03:03 (source organism: Orthomarburgvirus marburgense), 240 nM.

For the sequence SSFQDILLR, the Kd is at least 20000 nM with HLA-A*03:01 [3] (source organism: Influenza A virus (A/Memphis/14/1998(H3N2))) and 309 nM in the experiment with HLA-A*31:01 [5] (source organism: Influenza A virus (A/X-31(H3N2))).

On to IIAARNIVR, for which the dissociation constant (Kd) is 1540 nM with HLA-A*03:01 [3] (setting [33]), at least 20000 nM with HLA-A*11:01 [4] (setting [33]) and 3.62 nM with HLA-A*31:01 [5] (source organism: Influenza A virus H3N2).

Regarding RVHSFFIQY, the dissociation constant (Kd) with HLA-A*03:01 [3] (setting [34]) is 68.1 nM; with HLA-A*11:01 [4] (setting [34]) it was at most 1 nM; with HLA-A*31:01 [5] (setting [34]), 161 nM.

WYMRALYQK had a Kd with HLA-A*23:01 (setting [32]) of 388 nM.

For the sequence VAYHFHEPL, the Kd with HLA-C*03:03 (setting [29]) is at most 1 nM.

As to FTENGPWMY, the dissociation constant Kd is 2.7 nM with HLA-A*01:01; at least 20000 nM with HLA-A*02:01 [7] (setting [35]); at least 20000 nM with HLA-A*03:01 [3] (setting [35]); at least 20000 nM in the experiment with HLA-A*31:01 [25]; at least 20000 nM with HLA-B*08:02; 5.2 nM in the experiment with HLA-B*15:17. The Kd with HLA-B*27:05, with HLA-B*40:01, in the experiment with HLA-B*46:01 [13] (setting [35]), with HLA-B*48:01, with HLA-B*58:01 and with HLA-A*11:01 [26] was at least 20000 nM throughout. Also, the Kd with HLA-A*69:01 [19] (setting [36]), with HLA-B*15:01 [20] (setting [36]) and in the experiment with HLA-B*57:01 [23] (setting [36]) was at least 20000 nM each time.

In turn, TFYAEFPKK yielded a Kd with HLA-A*23:01 (source organism: Escherichia coli F11) of 66.2 nM.

For the sequence TVKRYLQAK, the Kd in the experiment with HLA-A*03:01 [6] (setting [30]) was 2840 nM; in the experiment with HLA-A*31:01 [5] (setting [30]), 55.7 nM.
